How the values were obtained:
[1] = molecular target: T1, human PD-1 (amino acids 1-185) on transfected Jurkat cells (human, UniProt Q15116 21-185); assay: flow cytometry, Jurkat+hPD-1 cells; competitor 10 µM anti-hPD-1 #1-mIgG2b-N297A
T1 construct: also called hPD-1; Jurkat+hPD-1 cell line
Protocol: (§1) Briefly, Jurkat cells stably expressing hPD-1 (as described in Protocol A above) were washed and re-suspended in FACS buffer containing 1:50 dilution of human FcR Blocking reagent. Cells were incubated at 4° C. for 10 minutes and washed. […] Cells were washed and incubated with test antibodies or antibody-attenuated hIL-2 fusion proteins serially diluted six-fold for an 8-point curve in 100 μL volume for one hour at 4° C. To detect bound test anti-hPD-1 antibodies or anti-hPD-1-attenuated hIL-2 fusion proteins, cells were washed again and incubated with 1:40 dilution of Allophycocyanin-conjugated anti-human IgG Fc monoclonal antibody for 45 minutes on ice. Cells were washed and re-suspended in FACS buffer containing 1:1000 dilution of Sytox Green (Thermo Fisher). […] Flow cytometry was carried out on the BD Canto II, BD Celesta, or BD Fortessa (BD Biosciences) flow cytometers and gMFI was calculated using FlowJo software version 10. EC₅₀ values were calculated from the gMFI of the Allophycocyanin signal across the titrated concentrations using GraphPad Prism 7 software.

[2] = molecular target: T2, native human PD-1 on PMA/ionomycin-activated primary human T cells (human, UniProt Q15116 25-288); assay: flow cytometry, activated human CD3+CD4+ T cells
T2 construct: whole, on cells; also called native hPD-1
Protocol: (§2) The binding of anti-hPD-1 antibodies and anti-hPD-1-attenuated hIL-2 fusion proteins on activated primary T cells expressing hPD-1 was examined by flow cytometry. […] Cells were then stained with 1:20 dilution of Allophycocyanin-conjugated anti-human IgG Fc to detect bound antibody. To delineate immune subsets, a cocktail of surface markers included anti-human CD3, anti-CD4, and anti-CD8 antibodies was used. […] Cells were analyzed on the BD Fortessa (BD Biosciences), FlowJo software version 10 was used to gate on T cell subsets then calculate gMFI of the allophycocyanin signal. EC₅₀ values were calculated from the gMFI across the titrated concentrations using GraphPad Prism 7 software. To test the binding of anti-hPD-1-hIL-2 fusion proteins, cryopreserved CD3+ T cells were activated with PMA/ionomycin and flow cytometry binding was performed identically as described above.

[3] = molecular target: T3, native cynomolgus PD-1 on PMA/ionomycin-activated cynomolgus T cells (cynomolgus, UniProt B0LAJ3 25-288); assay: flow cytometry, activated cynomolgus CD3+CD8+ T cells
Protocol: (§3) Human PD-1 antibody-attenuated hIL-2 fusion proteins were also tested for binding to activated cynomolgus T cells using flow cytometry. […] 24 hours later, cells were stained using the same procedure as binding to human PD-1 primary cells described above except cynomolgus cross-reactive markers were used. FlowJo software version 10 was used to gate on live, CD3⁺CD4⁺ or CD3⁺CD8⁺ T cells and then to calculate gMFI of the Allophycocyanin signal. EC₅₀ values were calculated from the gMFI across the titrated concentrations of anti-hPD-1 antibodies or hPD-1 antibody-attenuated hIL-2 fusion proteins using GraphPad Prism 7 software.

[4] = molecular target: T3, native cynomolgus PD-1 on …; assay: flow cytometry, activated cynomolgus CD3+CD4+ T cells
Protocol: as §3

[5] = molecular target: T1, human PD-1 (amino acids 1-185) on …; assay: flow cytometry on Jurkat cells expressing hPD-1; no competitor
Protocol: as §1

[6] = molecular target: T1, human PD-1 (amino acids 1-185) on …; assay: flow cytometry on Jurkat cells expressing hPD-1; cells pre-incubated with 10 µM anti-hPD-1 #2-mIgG2b-N297A
[7] = molecular target: human PD-1 on Jurkat Effector cells of the PD-1/PD-L1 blockade bioassay (Promega, Cat #J1255) (human, UniProt Q15116 25-288); assay: cell-based or functional assay
[8] = molecular target: T1, human PD-1 (amino acids 1-185) on …; assay: flow cytometry on Jurkat cells expressing hPD-1; cells pre-incubated with 10 µM anti-hPD-1 #1-mIgG2b-N297A
Protocol: as §1

[9] = molecular target: T2, native human PD-1 on …; assay: flow cytometry, activated human CD3+CD8+ T cells
Protocol: as §2

[10] = molecular target: T1, human PD-1 (amino acids 1-185) on …; assay: flow cytometry, Jurkat+hPD-1 cells
[11] = molecular target: T1, human PD-1 (amino acids 1-185) on …; assay: flow cytometry on Jurkat cells expressing hPD-1; no competitor; remark: listed apart in the source
Protocol: as §1

[12] = molecular target: T1, human PD-1 (amino acids 1-185) on …; assay: flow cytometry on Jurkat cells expressing hPD-1; cells pre-incubated with 10 µM anti-hPD-1 #2-mIgG2b-N297A; remark: listed apart in the source
Protocol: as §1

[13] = molecular target: T1, human PD-1 (amino acids 1-185) on …; assay: flow cytometry on Jurkat cells expressing hPD-1; cells pre-incubated with 10 µM anti-hPD-1 #1-mIgG2b-N297A; remark: listed apart in the source
Protocol: as §1

[14] = molecular target: T1, human PD-1 (amino acids 1-185) on …; assay: flow cytometry on Jurkat cells expressing hPD-1; cells pre-incubated with 10 µM anti-hPD-1 #2-mIgG2b-N297A; remark: listed apart in the source
Protocol: as §1

[15] = molecular target: T1, human PD-1 (amino acids 1-185) on …; assay: flow cytometry on Jurkat cells expressing hPD-1; cells pre-incubated with 10 µM anti-hPD-1 #1-mIgG2b-N297A; remark: listed apart in the source
Protocol: as §1

[16] = molecular target: T1, human PD-1 (amino acids 1-185) on …; assay: flow cytometry on Jurkat cells expressing hPD-1; no competitor; remark: listed apart in the source
Protocol: as §1

[17] = molecular target: T4, recombinant His-tagged human PD-1 (Acro Biosystems) (human, UniProt Q15116 25-167); assay: SPR, steady state, separate experiment; separate experiment; steady state KD
T4 construct: also called recombinant human PD-1; human PD-1 (Acro Biosystems, Cat #PD-1-H5221-100 ug)

[18] = molecular target: T5, human PD-1 on Jurkat cells (Jurkat+hPD-1) (human, UniProt Q15116 21-185); assay: flow cytometry on Jurkat cells expressing hPD-1
T5 construct: extracellular domain and a portion of the transmembrane domain, stably expressed on Jurkat cells
T5 sequence (Q15116 21-185 limits assumed): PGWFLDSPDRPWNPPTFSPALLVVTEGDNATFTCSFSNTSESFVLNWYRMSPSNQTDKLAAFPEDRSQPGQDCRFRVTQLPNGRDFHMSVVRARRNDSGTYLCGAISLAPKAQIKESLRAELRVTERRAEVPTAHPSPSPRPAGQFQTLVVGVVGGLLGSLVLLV
Protocol: EC₅₀ values were calculated from the geometric mean fluorescent intensity (gMFI) across the titrated concentrations using GraphPad Prism 7 software.

T1 sequence (Q15116 21-185 limits assumed): as above
T2 sequence (Q15116 25-288): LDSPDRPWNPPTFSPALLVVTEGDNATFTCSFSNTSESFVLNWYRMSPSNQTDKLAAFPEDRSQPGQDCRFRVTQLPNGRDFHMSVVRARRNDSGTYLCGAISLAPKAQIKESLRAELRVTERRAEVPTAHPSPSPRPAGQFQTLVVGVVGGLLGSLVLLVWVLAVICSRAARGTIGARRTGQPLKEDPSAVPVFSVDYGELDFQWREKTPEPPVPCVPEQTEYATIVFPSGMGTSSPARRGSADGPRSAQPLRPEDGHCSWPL
Sequence of human PD-1 on Jurkat Effector cells of the PD-1/PD-L1 blockade bioassay (Promega, Cat #J1255) (Q15116 25-288): as above
T3 sequence (B0LAJ3 entry or part of it limits assumed): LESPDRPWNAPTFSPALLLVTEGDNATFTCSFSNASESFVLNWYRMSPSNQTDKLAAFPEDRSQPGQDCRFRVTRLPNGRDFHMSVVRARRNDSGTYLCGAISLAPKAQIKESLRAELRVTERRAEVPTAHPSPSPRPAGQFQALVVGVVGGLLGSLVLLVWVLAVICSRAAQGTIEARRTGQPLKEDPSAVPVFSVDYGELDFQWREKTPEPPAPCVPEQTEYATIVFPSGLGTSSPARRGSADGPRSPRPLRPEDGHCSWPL
T4 sequence (Q15116 25-167 limits assumed): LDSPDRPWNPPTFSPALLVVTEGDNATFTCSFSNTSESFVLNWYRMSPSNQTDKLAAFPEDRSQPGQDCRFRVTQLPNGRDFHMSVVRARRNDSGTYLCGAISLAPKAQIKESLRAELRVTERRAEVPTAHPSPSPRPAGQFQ

Binder	fold shift of the dose-titration curve [1] [fold]	EC50 [2] [nM]	luminescence (RLU), PD-1/PD-L1 blockade bioassay [7] [RLU]	EC50 [9] [nM]	EC50 [18] [nM]	further results
2H7-hIgG4 (antibody) heavy: not shown light: EIVLTQSPGTLSLSPGERATLSCRASQSIGKSFLAWYQQKPGQAPRLLIYDASTRAADIPARFSGSGSGTDFTLTISSLEPEDFAVYYCQQYYDWPPLSFGGGTKVEIKRTVAAPSVFIFPPSDEQLKSGTASVVCLLNNFYPREAKVQWKVDNALQSGNSQESVTEQDSKDSTYSLSSTLTLSKADYEKHKVYACEVTHQGLSSPVTKSFNRGEC [2H7-hIgG4, listing 1 of 2 here]	< 10	0.1 to 0.7	~3000	0.1 to 0.8		EC50 [3]: 0.08 nM; EC50 [4]: 0.09 nM; EC50 (read off the curve) [5]: ~0.3 nM; EC50 (read off the curve) [6]: ~2 nM; EC50 (read off the curve) [8]: ~0.5 nM
C51E6-5-hIgG4 (antibody, V domains shown) VH: QVQLVQSGSELKKPGASVKVSCKASGYSLYGTSMHWVRQAPGQGLEWMGYISPFTGRATYAQGFTGRFVFSLDTSVSTAYLQISSLKAEDTAVYYCARDYDYRYYYAMDYWGQGTTVTVSS VL: EIVLTQSPDFQSVTPKEKVTITCTASESVPPQFLHWYQQKPDQSPKLLIYASRERASGVPSRFSGSGSGTDFTLTINSLEAEDAATYYCHQFHRSPLTFGGGTKLEIKR	< 10	12	~3000	16		EC50 [10]: 2 to 4 nM; EC50 (read off the curve) [11]: ~2 nM; EC50 (read off the curve) [12]: ~8 nM; EC50 (read off the curve) [13]: ~9 nM
A2-hIgG4 (antibody, V domains shown) VH: DVQLVESGGGLVQPGGSLRLSCAASGFTFDISAMSWVRQAPGKGLEWVSTISGSAYSTYYADSVKGRFTISRDNSKSTLYLQMNSLRAEDTAVYYCAREIFSDYWGLGTLVTVSS VL: QSVLTQPPSASGTPGQRVTISCSGSTSNIGRESVYWYQQLPGTAPKLLIYSNVQRPSGAPNRFSGSKSGTSASLAISGLQSEDEADYYCGTWDDSLNGWVFGGGTKLTVLG [A2-hIgG4, listing 1 of 2 here]	< 10	30	~3000	22		EC50 (read off the curve) [14]: ~20 nM; EC50 (read off the curve) [15]: ~10 nM; EC50 (read off the curve) [16]: ~6 nM
H7-632-hIgG1-LAGA (antibody, V domains shown) VH: EVQLLESGGGLVQPGGSLRLSCAASGFTFKSYAMHWVRQAPGKGLEWVSAIVYSGGSTYYADSVKGRFTISRDNSKNTLYLQMNSLRAEDTAVYYCAKYDRASYFYDAMDVWGQGTTVTVSS VL: EIVLTQSPGTLSLSPGERATLSCRASQSISSSFLAWYQQKPGQAPRLLIYDASDRATGIPDRFSGSGSGTDFTLTISRLEPEDFAVYYCQQYYDWPPLSFGGGTKVEIKR [H7-632-hIgG1-LAGA, listing 1 of 2 here]						Kd [17]: 1.23 nM
OMC.2.C6-hIgG4 (antibody, V domains shown) VH: EVQLLESGGGLVQPGGSLRLSCTASGFTFSSYEMQWVRQAPGKGLEWVLGITSSSSHIFYADSVKGRFTVSRDNSKNTLYLQMNSLRAEDTAVYYCTKDLNSYYGLDVWGQGTTVTVSS VL: QSVMTQPPSASGTPGQRVTISCSGSTSNLGNNYVSWYQHLPGTAPKLLIYGNDQRPSGVPDRFSGSKSGTSASLAISGLQSDDEADYYCSSWDASLNVWVFGGGTKLTVLG					11.5	
A2-hIgG4 (antibody, V domains shown) VH: DVQLVESGGGLVQPGGSLRLSCAASGFTFDISAMSWVRQAPGKGLEWVSTISGSAYSTYYADSVKGRFTISRDNSKSTLYLQMNSLRAEDTAVYYCAREIFSDYWGLGTLVTVSS VL: QSVLTQPPSASGTPGQRVTISCSGSTSNIGRESVYWYQQLPGTAPKLLIYSNVQRPSGAPNRFSGSKSGTSASLAISGLQSEDEADYYCGTWDDSLNGWVFGGGTKLTVLG [A2-hIgG4, listing 2 of 2 here]					5.97	
D12-hIgG4 (antibody, V domains shown) VH: DVQLVESGGGLVQPGGSLRLSCAASGFTFDISAMSWVRQAPGKGLEWVSTISGSAYSTYYADSVKGRFTISRDNSKSTLYLQMNSLRAEDTAVYYCAREIFSDYWGLGTLVTVSS VL: QSVLTQPPSASGTPGQRVTISCSGNTSNIGRESVYWYQQLPGTAPKLLIYSNVQRPSGVPDRFSGSKSGTSASLAISGLQSEDEADYYCGTWDDSLNGWVFGGGTKLTVLG					9.67	
G12-hIgG4 (antibody, V domains shown) VH: DSLVESGGGLVQPGGSLRLSCAASGFTFDISAMSWVRQAPGKGLEWVSTISGSAYSTYYADSVKGRFTISRDNSKSTLYLQMNSLRAEDTAVYYCAREIFSDYWGLGTLVTVSS VL: QSVLTQPPSASGTPGQRVTISCSGSTSNIGRESVYWYQQLPGTAPKLLIYLNSQRPSGVPDRFSGSKSGTSASLAISGLQSEDVADYYCGTWDDSLNGWVFGGGTKLTVLG					5.36	
2H7-hIgG4 (antibody) heavy: not shown light: EIVLTQSPGTLSLSPGERATLSCRASQSIGKSFLAWYQQKPGQAPRLLIYDASTRAADIPARFSGSGSGTDFTLTISSLEPEDFAVYYCQQYYDWPPLSFGGGTKVEIKRTVAAPSVFIFPPSDEQLKSGTASVVCLLNNFYPREAKVQWKVDNALQSGNSQESVTEQDSKDSTYSLSSTLTLSKADYEKHKVYACEVTHQGLSSPVTKSFNRGEC [2H7-hIgG4, listing 2 of 2 here]					0.277	
H7-632-hIgG1-LAGA (antibody, V domains shown) VH: EVQLLESGGGLVQPGGSLRLSCAASGFTFKSYAMHWVRQAPGKGLEWVSAIVYSGGSTYYADSVKGRFTISRDNSKNTLYLQMNSLRAEDTAVYYCAKYDRASYFYDAMDVWGQGTTVTVSS VL: EIVLTQSPGTLSLSPGERATLSCRASQSISSSFLAWYQQKPGQAPRLLIYDASDRATGIPDRFSGSGSGTDFTLTISRLEPEDFAVYYCQQYYDWPPLSFGGGTKVEIKR [H7-632-hIgG1-LAGA, listing 2 of 2 here]					0.115	

Source: patent US20240076343A1 (CEPHALON, published 2024)
